Tests used:
HLA-A*02:17 = experiment: IEDB peptide-MHC binding, purified MHC/competitive/radioactivity; filed as Kd, often an IC50 or EC50 that approximates it; ≥ and ≤ were set here for values at or beyond the usual limits of such assays; conditions: source organism: Dengue virus 4 Philippines/H241/1956
HLA-A*02:06 = experiment: as above; conditions: source organism: Dengue virus 4 Philippines/H241/1956
HLA-A*02:01 [1] = experiment: as above; conditions: source organism: Dengue virus 4 Philippines/H241/1956
HLA-A*68:02 = experiment: as above; conditions: source organism: Dengue virus 4 Philippines/H241/1956
HLA-B*15:09 = experiment: IEDB peptide-MHC binding, purified MHC/direct/fluorescence; filed as Kd, often an IC50 or EC50 that approximates it; ≥ and ≤ were set here for values at or beyond the usual limits of such assays; conditions: source organism: Yellow fever virus
HLA-B*58:01 = experiment: as above
HLA-B*57:01 = experiment: as above; conditions: source organism: Yellow fever virus
HLA-A*01:01 = experiment: as above
HLA-B*44:02 = experiment: as above; conditions: source organism: Yellow fever virus
HLA-B*48:01 = experiment: as above; conditions: source organism: Yellow fever virus
HLA-B*27:05 = experiment: as above
HLA-A*69:01 = experiment: as above; conditions: source organism: Yellow fever virus
HLA-B*15:01 = experiment: as above
HLA-A*11:01 = experiment: as above
HLA-B*40:01 = experiment: as above
HLA-B*18:01 = experiment: as above; conditions: source organism: Yellow fever virus
HLA-B*46:01 = experiment: as above; conditions: source organism: Yellow fever virus
HLA-B*07:02 = experiment: as above
HLA-A*31:01 = experiment: as above
HLA-A*02:01 [2] = experiment: as above
HLA-A*03:01 = experiment: as above
HLA-A*24:03 = experiment: as above; conditions: source organism: Corynebacterium glutamicum
HLA-A*26:01 = experiment: as above; conditions: source organism: Corynebacterium glutamicum
HLA-B*35:01 = experiment: as above; conditions: source organism: Corynebacterium glutamicum
HLA-B*08:01 = experiment: as above; conditions: source organism: Corynebacterium glutamicum
HLA-A*80:01 = experiment: as above; conditions: source organism: Escherichia coli O157:H7
[3] = source organism: Yellow fever virus
[4] = source organism: Corynebacterium glutamicum

MTLWYMWQV was tested, and the Kd (HLA-A*02:17) was 0.0274 µM, the Kd (HLA-A*02:06) was 0.00267 µM and the Kd (HLA-A*02:01 [1]) was 0.0137 µM. It also gave a Kd (HLA-A*68:02) of 0.0113 µM.
FHKRDMRLL showed a Kd (HLA-B*15:09) of 3 µM, a Kd (HLA-B*58:01; [3]) of no less than 20 µM and a Kd (HLA-B*57:01) of no less than 20 µM. For the same sequence, the Kd (HLA-A*01:01; [3]) was no less than 20 µM, the Kd (HLA-B*44:02) was no less than 20 µM and the Kd (HLA-B*48:01) was no less than 20 µM. The Kd (HLA-B*27:05; [3]) was no less than 20 µM, the Kd (HLA-A*69:01) was no less than 20 µM and the Kd (HLA-B*15:01; [3]) was no less than 20 µM. The Kd (HLA-A*11:01; [3]) was no less than 20 µM, the Kd (HLA-B*40:01; [3]) was no less than 20 µM and the Kd (HLA-B*18:01) was no less than 20 µM. For the same sequence, the Kd (HLA-B*46:01) was no less than 20 µM, the Kd (HLA-B*07:02; [3]) was no less than 20 µM and the Kd (HLA-A*31:01; [3]) was no less than 20 µM. The Kd (HLA-A*02:01 [2]; [3]) was no less than 20 µM and the Kd (HLA-A*03:01; [3]) was no less than 20 µM.
FAAAAARTL showed a Kd (HLA-B*58:01; [4]) of 2.38 µM, a Kd (HLA-A*01:01; [4]) of no less than 20 µM and a Kd (HLA-A*24:03) of no less than 20 µM. For the same sequence, the Kd (HLA-A*26:01) was no less than 20 µM, the Kd (HLA-B*35:01) was 0.00517 µM and the Kd (HLA-B*27:05; [4]) was no less than 20 µM. The Kd (HLA-B*08:01) was 2.34 µM, the Kd (HLA-B*15:01; [4]) was 0.296 µM and the Kd (HLA-A*11:01; [4]) was no less than 20 µM. The Kd (HLA-B*40:01; [4]) was 2.57 µM, the Kd (HLA-B*07:02; [4]) was 0.122 µM and the Kd (HLA-A*31:01; [4]) was no less than 20 µM. The Kd (HLA-A*02:01 [2]; [4]) was no less than 20 µM and the Kd (HLA-A*03:01; [4]) was no less than 20 µM.
In the case of RVIRTVREK, the Kd (HLA-A*01:01; source organism: Escherichia coli O157:H7) is reported as no less than 20 µM and the Kd (HLA-A*80:01) is reported as no less than 20 µM.
